Here are results for 1 molecule from patent US7005258 (NATIONAL INSTITUTES OF HEALTH, dated 2006).

In this experiment the target is T1, human cdc2 (p34^cdc2, endogenous, HeLa cells) (human, UniProt P06493 1-297).
T1 construct: On p13 beads it is present as cdc2/cyclin B; also called p34^cdc2 kinase
In words: precipitation on p13 beads from HeLa lysate.

T1 sequence (P06493 whole entry): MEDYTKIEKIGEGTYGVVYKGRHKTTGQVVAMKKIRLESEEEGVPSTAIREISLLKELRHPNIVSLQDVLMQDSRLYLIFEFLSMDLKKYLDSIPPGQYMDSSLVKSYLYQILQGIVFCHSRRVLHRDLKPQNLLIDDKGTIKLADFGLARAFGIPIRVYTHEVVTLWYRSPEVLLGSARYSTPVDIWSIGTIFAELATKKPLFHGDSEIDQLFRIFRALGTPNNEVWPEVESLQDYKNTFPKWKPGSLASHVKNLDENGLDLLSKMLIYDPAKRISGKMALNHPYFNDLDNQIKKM

B1: p13 protein encoded by the suc1 gene (other, fission yeast, UniProt P08463 1-113, looked up)
chain: MSKSGVPRLLTASERERLEPFIDQIHYSPRYADDEYEYRHVMLPKAMLKAIPTDYFNPETGTLRILQEEEWRGLGITQSLGWEMYEVHVPEPHILLFKREKDYQMKFSQQRGG
notes: also called p13-Suc1; p13 (Sucl)
B1: the binding result is “binds”.
